Measurements from article PMC12159748.

How the values were obtained:
[1] = test system: MBP-P6.9 NA-FLAG (7A, hypo-phosphorylation mimic) (Autographa californica multiple nucleopolyhedrovirus (AcMNPV)); assay: fluorescence polarization; conditions: FP: 50 mM HEPES pH 7.5, 0.005% sarcosyl, 100 mM NaCl, 0.5 mM EDTA, 1 mM DTT, 20 nM DNA, 1 h at 4 C, EMSA: 50 mM Tris pH 7.4, 100 mM NaCl, 1 mM EDTA
[2] = test system: MBP-P6.9 NE-FLAG (7E, hyper-phosphorylation mimic) (Autographa californica multiple nucleopolyhedrovirus (AcMNPV)); assay: fluorescence polarization; conditions: FP: 50 mM HEPES pH 7.5, 0.005% sarcosyl, 100 mM NaCl, 0.5 mM EDTA, 1 mM DTT, 20 nM DNA, 1 h at 4 C, EMSA: 50 mM Tris pH 7.4, 100 mM NaCl, 1 mM EDTA

39-bp DNA
Kd [1]: 0.45 µM | Kd [2]: 1.75 µM
